{"source": "patent US11789012B2", "about": "“Cell death biomarker” (UCL Business PLC, priority 2016, dated 2023)", "molecules": {"B1": {"name": "rTRAIL: recombinant protein that activates the TRAIL pathway by binding to TRAIL-R1 (DR 4) and TRAIL-R2 (DR 5) (protein, UniProt P50591 1-281, looked up)", "Tumor necrosis factor ligand …": "MAMMEVQGGPSLGQTCVLIVIFTVLLQSLCVAVTYVYFTNELKQMQDKYSKSGIACFLKEDDSYWDPNDEESMNSPCWQVKWQLRQLVRKMILRTSEETISTVQEKQQNISPLVRERGPQRVAAHITGTRGRSNTLSSPNSKNEKALGRKINSWESSRSGHSFLSNLHLRNGELVIHEKGFYYIYSQTYFRFQEEIKENTKNDKQMVQYIYKYTSYPDPILLMKSARNSCWSKDAEYGLYSIYQGGIFELKENDRIFVSVTNEHLIDMDHEASFFGAFLVG"}}, "key": {"[1]": {"system": "H226", "assay": "rTRAIL response, viability assay, H226", "format": "cell-based, Human", "details": "BAP1 Deletion, Homozygous", "method": "(§1) Manual “single dose” combination screening was undertaken using 96 well formats. Cells were plated on day 1 in previously optimized seeding densities in 180 μl if media. On day 2 20 μl of a 10× concentration of […] was added. Cells were then allowed to grow for 72 hrs or 6 days and fixed at the end of the assay. Drug wells were compared to DMSO treated control wells.\n(§2) Single agent high throughput 5 point viability screening was undertaken in 384 well formats using robotic liquid handling with fixing with 4% paraformaldehyde and staining for viability with Syto60 nucleic acid dye (Invitrogen) (see below). Single agent dose response curves were derived for each library of 85-95 drugs according to the experiment used, and log IC50 or area under the curve (AUC) metrics were derived for each library compound in each cell line according to a previously derived formula [18].\n(§3) Adherent cell lines were seeded 24 hours before drugging. Cells were trypsinised and counted before seeding at the optimal density for the size of well (96 or 384) and duration of assay. 72 hr after drug treatment cells were fixed with 4% paraformaldehyde for 30 minutes. […] Quantification of fluorescent signal was achieved using excitation/emission wavelength of 630/695 […]."}, "[2]": {"system": "H2731", "assay": "rTRAIL response, viability assay, H2731", "format": "cell-based, Human", "details": "BAP1 Essential Splice, heterozygous", "method": "as §1, §2, §3"}, "[3]": {"system": "H2795", "assay": "rTRAIL response, viability assay, H2795", "format": "cell-based, Human", "details": "BAP1 Essential Splice, heterozygous", "method": "as §1, §2, §3"}, "[4]": {"system": "NCI-H2452", "assay": "rTRAIL response, viability assay, NCI-H2452", "format": "cell-based, Human", "details": "BAP1 Substitution - Missense, homozygous", "method": "as §1, §2, §3"}, "[5]": {"system": "NCI-H28", "assay": "rTRAIL response, viability assay, NCI-H28", "format": "cell-based, Human", "details": "BAP1 Essential Splice, heterozygous", "method": "as §1, §2, §3"}, "[6]": {"system": "NCI-H226", "assay": "rTRAIL response, viability assay, NCI-H226", "format": "cell-based, Human", "details": "BAP1 HomDel, homozygous", "method": "as §1, §2, §3"}, "[7]": {"system": "H2373", "assay": "rTRAIL response, viability assay, H2373", "format": "cell-based, Human", "details": "BAP1 Wild-type", "method": "as §1, §2, §3"}, "[8]": {"system": "H2591", "assay": "rTRAIL response, viability assay, H2591", "format": "cell-based, Human", "details": "BAP1 Wild-type", "method": "as §1, §2, §3"}, "[9]": {"system": "H2810", "assay": "rTRAIL response, viability assay, H2810", "format": "cell-based, Human", "details": "BAP1 Wild-type", "method": "as §1, §2, §3"}, "[10]": {"system": "H513", "assay": "rTRAIL response, viability assay, H513", "format": "cell-based, Human", "method": "as §1, §2, §3"}, "[11]": {"system": "MSTO-211H", "assay": "rTRAIL response, viability assay, MSTO-211H", "format": "cell-based, Human", "details": "BAP1 Wild-type", "method": "as §1, §2, §3"}, "[12]": {"system": "control normal mesothelial cell line MET-5A", "assay": "6-day viability assay, normal mesothelial control line", "format": "cell-based", "details": "rTRAIL 40 ng/ml", "method": "(§4) FIG. 2A is a volcano plot showing drug-genome interactions in MPM. […] The Y-axis denotes adjusted p-Value, X-axis denotes effect size. Size of circle indicates number of mutant lines in cohort tested. […] Met 5a is a mesothelial normal control line. FIG. 2C is a scatter plot showing AUC following 6 day viability assay in response to 40 ng/ml rTRAIL (normalised to DMSO treated control) in cell lines discretized by BAP1 mutation status. […] Two-tailed t-test, p=0.015.\nas §1\nAdherent cell lines were seeded 24 hours before drugging. Cells were trypsinised and counted before seeding at the optimal density for the size of well (96 or 384) and duration of assay. 72 hr after drug treatment cells were fixed with 4% paraformaldehyde for 30 minutes. Following two washes of dH2O 100 μl Syto60 nucleic acid stain (Invitrogen) was added at a final concentration of 1 μM and plates […] for 1 hr at room temperature. Quantification of fluorescent signal was achieved using excitation/emission wavelength of 630/695 […]."}, "[13]": {"system": "mesothelioma cell lines", "assay": "Chemical screen, viability of mesothelioma cell lines by BAP1 mutation status", "format": "cell-based, Human", "details": "6 day viability assay, 40 ng/ml rTRAIL", "method": "as §4\nManual “single dose” combination screening was undertaken using 96 well formats. Cells were plated on day 1 in previously optimized seeding densities in 180 μl if media. On day 2 20 μl of a 10× concentration of media from a stock of drugs was added. […]\nA binary event matrix was compiled for the cell lines in the mesothelioma screen by aggregating copy number and exome data and this was used as input classifiers for genomic correlation. Data from this therapeutic screen was then analysed using a Multivariate Analysis of Variance (MANOVA) to annotate the sensitizing effect of genotype on dose response.\nAdherent cell lines were seeded 24 hours before drugging. Cells were trypsinised and counted before seeding at the optimal density for the size of well (96 or 384) and duration of assay. […] Quantification of fluorescent signal was achieved using excitation/emission wavelength of 630/695 […]."}, "[14]": {"system": "H2818", "assay": "Cell death response to rTRAIL after BAP1 shRNA knockdown in H2818", "format": "cell-based, Human", "details": "H2818 BAP1 wild-type line", "method": "Adherent mesothelioma cell lines were plated in a 96 well plate at approximately 10000 cells per well. Cells were plated and given 1 day to adhere at which time drug was added. After 48 hrs media, including floating cells, was collected from each well. The remaining adherent cells were washed with PBS and mobilised with 0.05% trypsin in EDTA. All cells were collected into tubes containing the previously removed media and pelleted by centrifugation (300 g, 5 minutes). Cells were then re-suspended in 1× Annexin V binding buffer with 10 μl/1 ml concentration of Annexin V-647 antibody (Invitrogen) and incubated for 15 minutes at room temperature. DAPI ([…]) was then added to each sample before flow cytometry analysis as below. Annexin V−/DAPI− cells were judged to be viable, AnnexinV+/DAPI− cells were considered to be undergoing apoptosis (early apoptotic phase), and Annexin V+/DAPI+ cells were considered late apoptotic or necrotic, and recorded as dead.\nLentivirus encoding shRNA targeting BAP1 was generated as per the lentivirus production protocol above. MPM cells (H2818) were transduced and treated with puromycin […] until a pure population was achieved. Immunoblotting was performed to assess efficacy of the shRNA knockdown."}, "[15]": {"system": "RT4", "assay": "rTRAIL viability, bladder cancer cell line RT4", "format": "cell-based", "details": "nonsense mutation in BAP1", "description": "(§5) FIG. 8A is a graph showing the effect of rTRAIL on the viability of various cancer cell lines. Bladder (RT4) and Breast (HCC1187) cancer cell lines with nonsense mutations in BAP1 show sensitivity to rTRAIL while renal cell cancer cell lines (769P & RCC10RGB) with missense mutation and wild-type renal (BB65RCC) and bladder cancer (SW1710) cell lines are resistant to TRAIL."}, "[16]": {"system": "BB65RCC", "assay": "rTRAIL viability, renal cell line BB65RCC", "format": "cell-based", "details": "BAP1 wild-type", "description": "as §5"}, "[17]": {"system": "SW1710", "assay": "rTRAIL viability, bladder cancer cell line SW1710", "format": "cell-based", "details": "BAP1 wild-type", "description": "as §5"}}, "data": [{"molecule": "B1", "values": [{"measurement": "rTRAIL response", "setting": "[1]", "value": "Sensitive"}, {"measurement": "rTRAIL response", "setting": "[2]", "value": "Sensitive"}, {"measurement": "rTRAIL response", "setting": "[3]", "value": "Sensitive*"}, {"measurement": "rTRAIL response", "setting": "[4]", "value": "Resistant"}, {"measurement": "rTRAIL response", "setting": "[5]", "value": "Sensitive"}, {"measurement": "rTRAIL response", "setting": "[6]", "value": "Sensitive**"}, {"measurement": "rTRAIL response", "setting": "[7]", "value": "Resistant"}, {"measurement": "rTRAIL response", "setting": "[8]", "value": "Resistant"}, {"measurement": "rTRAIL response", "setting": "[9]", "value": "Resistant"}, {"measurement": "rTRAIL response", "setting": "[10]; BAP1 Wild-type", "value": "Resistant"}, {"measurement": "TRAIL sensitivity", "setting": "[10]; BAP1 wild-type and ASXL3 mutant (truncating mutation)", "value": "sensitive"}, {"measurement": "rTRAIL response", "setting": "[11]", "value": "Sensitive**"}, {"measurement": "effect on cell viability", "setting": "[12]", "value": "no significant effect on cell viability"}, {"measurement": "sensitivity of BAP1 mutant cells compared with wild-type counterparts", "setting": "[13]", "value": "significantly more sensitive"}, {"measurement": "TRAIL sensitivity after ablation of BAP1 with lentiviral shRNA vs parental line", "setting": "[14]", "value": "shift towards increased sensitivity"}, {"measurement": "response to rTRAIL (viability)", "setting": "[15]", "value": "sensitivity"}, {"measurement": "response to TRAIL (viability)", "setting": "[16]", "value": "resistant"}, {"measurement": "response to TRAIL (viability)", "setting": "[17]", "value": "resistant"}]}]}
